Source: patent publication US7252997

How the values were obtained:
[1] = target: Wild-type AAV2 capsid (adeno-associated virus serotype 2 (AAV2)) (UniProt P03135); assay: capsid ELISA with A20 MAb on purified virus stock
[2] = target: AAV2 capsid mutant I-587 (P1 peptide inserted after amino acid 587, VP1 numbering) (adeno-associated virus serotype 2 (AAV2)) (UniProt P03135); assay: capsid ELISA with A20 MAb on purified virus stock

**Q.** With A20 monoclonal antibody as the substance, how does the titer with A20 capsid ELISA [1] read?
**A.** 6e+12 particles/ml

**Q.** And the titer with A20 capsid ELISA [2]?
**A.** 3e+12 particles/ml
